Results: patent US20100227414A1, “Affinity capture mass spectroscopy with a porous silicon biosensor” (Trex Enterprises Corp., priority 2009, published 2010)

Molecular target: extra-cellular receptor for interleukin 34 (Homo sapiens, UniProt P07333)
Assay: NPOI flow cell label-free binding with fraction collection (AC-MS)
From the text: The first embodiment is sketched in FIG. 3. The NPOI flow cell instrument is used together with a fraction collector. This fraction collector could simply be a collection vessel of some sort. Initially capture molecule is placed on the porous silicon chip using a typical flow cell procedure. A carboxyl chip shown at 214 in FIG. 2, used for amino coupling, is used. This contains both a sample and reference channel 220 and 221. Using the AutoPrep 200 and two 6-port, 2-position injection valves, one for the sample 210 and one for the reference 211, solutions are introduced to the flow cell. Initially the chip is activated using water as running buffer, pumped by two separate pumps one for sample 212 and one for reference 213, at 8 μL/min. A solution of 200 mM, 1-ethyl-3-(3-dimethylaminopropyl) carbodiimide (EDC) and 50 mM sufo N-hydroxysuccinimide (sNHS) is used to activate the chip for 8 minutes. Then a solution of 20 μg/mL capture molecule is introduced in pH 5.0, 40 mM acetate buffer (1-1,000 μg/mL concentration may also be used). […] The chip is now ready for binding. […]
A specific example of such an approach is shown in FIG. 8 which is a print of a monitor display showing Mascot Search Results. […] The resulting data was analyzed using Mascot and a customized human protein database (810) show the successful identification of IL34.

Sequence of extra-cellular receptor for interleukin 34 (P07333 20-517 limits assumed): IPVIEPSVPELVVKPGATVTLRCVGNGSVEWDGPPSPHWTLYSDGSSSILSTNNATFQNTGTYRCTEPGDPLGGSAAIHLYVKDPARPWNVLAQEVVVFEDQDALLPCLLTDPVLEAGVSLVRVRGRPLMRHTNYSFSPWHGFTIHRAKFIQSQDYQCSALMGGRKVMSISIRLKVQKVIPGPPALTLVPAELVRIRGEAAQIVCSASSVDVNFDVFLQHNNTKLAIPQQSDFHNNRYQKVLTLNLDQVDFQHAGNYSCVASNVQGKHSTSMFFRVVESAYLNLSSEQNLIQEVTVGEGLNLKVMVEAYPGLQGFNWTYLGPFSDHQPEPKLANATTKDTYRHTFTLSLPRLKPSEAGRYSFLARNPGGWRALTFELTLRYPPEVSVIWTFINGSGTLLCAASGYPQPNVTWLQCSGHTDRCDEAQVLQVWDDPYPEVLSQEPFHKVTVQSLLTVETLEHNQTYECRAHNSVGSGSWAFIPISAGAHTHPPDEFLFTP

change in OPD (label-free binding signal) (IL34 100 ng/mL in spent cell culture media, 50 μL, between 0 and 240 seconds, receptor immobilized at 100 μg/mL): 0.7 nm
amount captured on chip corresponding to OPD change (almost complete capture of the material introduced): 5 ng
B1: Interleukin 34 (protein, UniProt Q6ZMJ4 21-242, looked up)
Interleukin-34: NEPLEMWPLTQNEECTVTGFLRDKLQYRSRLQYMKHYFPINYKISVPYEGVFRIANVTRLQRAQVSERELRYLWVLVSLSATESVQDVLLEGHPSWKYLQEVETLLLNVQQGLTDVEVSPKVESVLSLLNAPGPNLKLVRPKALLDNCFRVMELLYCSCCKQSSVLNWQDCEVPSPQSCSPEPSLQYAATQLYPPPPWSPSSPPHSTGSVRPVRAQGEGLLP
notes: Interleukin 34 (the analyte) doped into spent cell culture media
